Source: article PMC3078924

Molecular target: recombinant ATP synthase subunit β of A. actinomycetemcomitans, as purified (Aggregatibacter actinomycetemcomitans ATCC 700685 (HK1651))
Experiment: native gel or EMSA; recombinant ATP synthase subunit β on native PAGE, silver stained; three prominent forms

“recombinant ATP synthase subunit β of A. actinomycetemcomitans, as purified (enzyme)” was tested, and the stoichiometry N was 3.
